Legend:
[1] = molecular target: mouse DLL3 expressed on CHO cells (mouse) (UniProt O88516); experiment: flow cytometry, 10 ug/ml AMG 757 on CHO muDLL3 cells, anti-human IgG Fc-APC
[2] = molecular target: cynomolgus monkey DLL3 expressed on CHO cells (cynomolgus monkey); experiment: flow cytometry, 10 ug/ml AMG 757 on CHO cynoDLL3 cells, anti-human IgG Fc-APC
[3] = molecular target: rat DLL3 expressed on CHO cells (rat) (UniProt O88671); experiment: flow cytometry, 10 ug/ml AMG 757 on Low CHO rtDLL3 cells, anti-human IgG Fc-APC
rat DLL3 expressed on CHO cells (rat), sequence (O88671 33-589): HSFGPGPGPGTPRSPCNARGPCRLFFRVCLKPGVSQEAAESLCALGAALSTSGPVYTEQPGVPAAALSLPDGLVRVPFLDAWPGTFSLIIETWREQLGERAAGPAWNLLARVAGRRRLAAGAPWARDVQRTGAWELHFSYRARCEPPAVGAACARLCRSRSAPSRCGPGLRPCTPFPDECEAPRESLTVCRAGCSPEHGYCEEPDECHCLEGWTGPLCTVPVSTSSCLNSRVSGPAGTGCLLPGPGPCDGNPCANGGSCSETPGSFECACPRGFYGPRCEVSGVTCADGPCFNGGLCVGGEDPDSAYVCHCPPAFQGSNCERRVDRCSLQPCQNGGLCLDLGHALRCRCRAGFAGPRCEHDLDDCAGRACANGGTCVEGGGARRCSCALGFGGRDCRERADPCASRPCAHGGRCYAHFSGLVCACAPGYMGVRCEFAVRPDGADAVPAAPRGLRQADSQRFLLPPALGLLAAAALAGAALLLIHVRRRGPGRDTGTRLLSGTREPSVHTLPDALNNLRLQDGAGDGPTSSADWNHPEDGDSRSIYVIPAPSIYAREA

[4] = molecular target: human FLT3 expressed on CHO cells (human) (UniProt P36888); experiment: flow cytometry, 10 ug/ml AMG 757 on CHO huFTL3 (negative control) cells, anti-human IgG Fc-APC
[5] = molecular target: human DLL3 expressed on the surface of cells (human) (UniProt Q9NYJ7); experiment: flow cytometry, 10 ug/ml AMG 757 on CHO huDLL3 cells, anti-human IgG Fc-APC
human DLL3 expressed on the surface of cells (human), sequence (Q9NYJ7 27-618 limits assumed): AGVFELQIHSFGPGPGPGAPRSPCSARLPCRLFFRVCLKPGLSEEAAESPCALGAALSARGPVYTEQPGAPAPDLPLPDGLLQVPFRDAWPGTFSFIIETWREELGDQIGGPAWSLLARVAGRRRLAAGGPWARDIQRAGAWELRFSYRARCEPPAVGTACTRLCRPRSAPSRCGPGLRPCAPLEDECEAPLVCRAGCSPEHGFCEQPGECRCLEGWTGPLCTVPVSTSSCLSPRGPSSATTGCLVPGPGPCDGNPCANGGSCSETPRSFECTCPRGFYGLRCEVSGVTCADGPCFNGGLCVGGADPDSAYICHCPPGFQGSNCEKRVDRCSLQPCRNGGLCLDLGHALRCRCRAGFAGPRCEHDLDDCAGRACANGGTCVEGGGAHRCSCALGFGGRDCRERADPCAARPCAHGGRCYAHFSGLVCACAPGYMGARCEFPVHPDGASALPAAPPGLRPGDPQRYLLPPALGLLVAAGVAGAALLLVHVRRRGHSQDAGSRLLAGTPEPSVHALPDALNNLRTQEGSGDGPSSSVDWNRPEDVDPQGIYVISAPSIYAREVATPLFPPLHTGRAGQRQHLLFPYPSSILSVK

[6] = molecular target: rat DLL3 expressed on CHO cells (rat) (UniProt O88671); experiment: flow cytometry, 10 ug/ml AMG 757 on High CHO rtDLL3 cells, anti-human IgG Fc-APC

cynomolgus monkey DLL3 expressed on CHO cells (cynomolgus monkey), sequence (chain, as listed by the source, form in doubt): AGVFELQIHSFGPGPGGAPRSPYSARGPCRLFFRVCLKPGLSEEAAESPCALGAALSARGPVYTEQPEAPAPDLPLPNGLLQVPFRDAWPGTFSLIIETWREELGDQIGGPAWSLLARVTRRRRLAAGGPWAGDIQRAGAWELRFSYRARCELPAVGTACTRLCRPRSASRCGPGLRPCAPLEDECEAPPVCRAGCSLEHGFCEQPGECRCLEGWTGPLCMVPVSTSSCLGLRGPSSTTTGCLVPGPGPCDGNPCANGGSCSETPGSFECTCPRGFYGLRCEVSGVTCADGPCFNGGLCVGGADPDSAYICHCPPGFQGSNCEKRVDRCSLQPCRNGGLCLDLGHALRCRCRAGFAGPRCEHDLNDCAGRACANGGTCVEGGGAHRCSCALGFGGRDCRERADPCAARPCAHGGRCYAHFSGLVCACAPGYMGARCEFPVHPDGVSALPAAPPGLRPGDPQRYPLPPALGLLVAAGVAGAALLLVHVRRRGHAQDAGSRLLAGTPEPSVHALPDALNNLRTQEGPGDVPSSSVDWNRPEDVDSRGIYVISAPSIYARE
mouse DLL3 expressed on CHO cells (mouse), sequence (O88516 33-592): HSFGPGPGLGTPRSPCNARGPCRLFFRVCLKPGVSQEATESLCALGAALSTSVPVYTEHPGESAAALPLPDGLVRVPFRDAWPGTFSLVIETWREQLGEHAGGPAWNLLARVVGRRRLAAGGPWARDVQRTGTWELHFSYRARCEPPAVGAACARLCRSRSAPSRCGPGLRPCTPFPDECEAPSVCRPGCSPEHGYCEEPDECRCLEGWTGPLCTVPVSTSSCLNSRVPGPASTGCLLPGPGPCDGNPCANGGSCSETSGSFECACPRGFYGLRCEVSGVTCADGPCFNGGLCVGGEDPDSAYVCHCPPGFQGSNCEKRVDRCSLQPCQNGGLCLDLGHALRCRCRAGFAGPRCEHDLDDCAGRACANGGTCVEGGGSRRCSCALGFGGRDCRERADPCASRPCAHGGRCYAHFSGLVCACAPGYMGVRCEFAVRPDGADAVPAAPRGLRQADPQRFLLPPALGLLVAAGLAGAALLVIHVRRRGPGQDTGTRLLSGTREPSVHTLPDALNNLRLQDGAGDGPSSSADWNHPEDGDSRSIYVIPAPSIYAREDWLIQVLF

## AMG 757 (bispecific antibody)
[1]
  DLL3 positive cells (%): 99.5%
[2]
  DLL3 positive cells (%): 98.4%
[3]
  DLL3 positive cells (%): 98.6%
[4]
  DLL3 positive cells (%): 3.3%
[5]
  DLL3 positive cells (%): 99.7%
[6]
  DLL3 positive cells (%): 98.6%

Reference: patent publication US20250074943A1, “DLL3 BINDING PEPTIDES AND USES THEREOF” (AMGEN INC., priority 2021, published 2025)
